Assay results: the RNAGym collection of RNA variant scans (doi:10.7554/elife.80360)

B1: Hammerhead Ribozyme (parent)
chain: ACCGGAUGUGCUUUCCGGUCUGAUGAGUCCGUGAGGACGAAACAG

Variants of: B1
Test: self-cleavage, relative activity (ratio to wild type); higher = more cleavage; co-transcriptional

| Variant | self-cleavage |
| --- | --- |
| ACCGGAUGUGCCUUCCGGUCUGAUGAGUCGGUGAGGACGAAACAG [U12C C30G] | 0.84 |
| ACCGGAUGUGCCUUCCGGUCUGAUGAGUCUGUGAGGACGAAACAG [U12C C30U] | 0.683 |
| ACCGGAUGUGCCUUCCGGUCUGAUGAGUCCGUGAGGAAGAAACAG [U12C C38A] | 0.678 |
| ACCGGAUGUGCCUUCCGGUCUGAUGAGUCCGUGAGGAGGAAACAG [U12C C38G] | 0.663 |
| ACCGGAUGUGCCUUCCGGUCUGAUGAGUCCGUGAGGAUGAAACAG [U12C C38U] | 0.832 |
| ACCGGAUGUGCCUUCCGGUCUGAUGAGUCCGUGAGGACGAAAAAG [U12C C43A] | 0.278 |
| ACCGGAUGUGCCUUCCGGUCUGAUGAGUCCGUGAGGACGAAAGAG [U12C C43G] | 0.305 |
| ACCGGAUGUGCCUUCCGGUCUGAUGAGUCCGUGAGGACGAAAUAG [U12C C43U] | 0.486 |
| ACCGGAUGUGCCUUCCAGUCUGAUGAGUCCGUGAGGACGAAACAG [U12C G17A] | 0.79 |
| ACCGGAUGUGCCUUCCCGUCUGAUGAGUCCGUGAGGACGAAACAG [U12C G17C] | 0.446 |
| ACCGGAUGUGCCUUCCUGUCUGAUGAGUCCGUGAGGACGAAACAG [U12C G17U] | 0.612 |
| ACCGGAUGUGCCUUCCGAUCUGAUGAGUCCGUGAGGACGAAACAG [U12C G18A] | 0.627 |
| ACCGGAUGUGCCUUCCGCUCUGAUGAGUCCGUGAGGACGAAACAG [U12C G18C] | 0.5 |
| ACCGGAUGUGCCUUCCGUUCUGAUGAGUCCGUGAGGACGAAACAG [U12C G18U] | 0.626 |
| ACCGGAUGUGCCUUCCGGUCUAAUGAGUCCGUGAGGACGAAACAG [U12C G22A] | 0.36 |
| ACCGGAUGUGCCUUCCGGUCUCAUGAGUCCGUGAGGACGAAACAG [U12C G22C] | 0.337 |
| ACCGGAUGUGCCUUCCGGUCUUAUGAGUCCGUGAGGACGAAACAG [U12C G22U] | 0.36 |
| ACCGGAUGUGCCUUCCGGUCUGAUAAGUCCGUGAGGACGAAACAG [U12C G25A] | 0.352 |
| ACCGGAUGUGCCUUCCGGUCUGAUCAGUCCGUGAGGACGAAACAG [U12C G25C] | 0.354 |

| Variant | self-cleavage |
| --- | --- |
| ACCGGAUGUGCCUUCCGGUCUGAUUAGUCCGUGAGGACGAAACAG [U12C G25U] | 0.277 |
| ACCGGAUGUGCCUUCCGGUCUGAUGAAUCCGUGAGGACGAAACAG [U12C G27A] | 0.605 |
| ACCGGAUGUGCCUUCCGGUCUGAUGACUCCGUGAGGACGAAACAG [U12C G27C] | 0.669 |
| ACCGGAUGUGCCUUCCGGUCUGAUGAUUCCGUGAGGACGAAACAG [U12C G27U] | 0.581 |
| ACCGGAUGUGCCUUCCGGUCUGAUGAGUCCAUGAGGACGAAACAG [U12C G31A] | 0.871 |
| ACCGGAUGUGCCUUCCGGUCUGAUGAGUCCCUGAGGACGAAACAG [U12C G31C] | 0.913 |
| ACCGGAUGUGCCUUCCGGUCUGAUGAGUCCUUGAGGACGAAACAG [U12C G31U] | 1 |
| ACCGGAUGUGCCUUCCGGUCUGAUGAGUCCGUAAGGACGAAACAG [U12C G33A] | 1.25 |
| ACCGGAUGUGCCUUCCGGUCUGAUGAGUCCGUCAGGACGAAACAG [U12C G33C] | 0.817 |
| ACCGGAUGUGCCUUCCGGUCUGAUGAGUCCGUUAGGACGAAACAG [U12C G33U] | 1.37 |
| ACCGGAUGUGCCUUCCGGUCUGAUGAGUCCGUGAAGACGAAACAG [U12C G35A] | 0.737 |
| ACCGGAUGUGCCUUCCGGUCUGAUGAGUCCGUGACGACGAAACAG [U12C G35C] | 0.617 |
| ACCGGAUGUGCCUUCCGGUCUGAUGAGUCCGUGAUGACGAAACAG [U12C G35U] | 0.834 |
| ACCGGAUGUGCCUUCCGGUCUGAUGAGUCCGUGAGAACGAAACAG [U12C G36A] | 0.55 |
| ACCGGAUGUGCCUUCCGGUCUGAUGAGUCCGUGAGCACGAAACAG [U12C G36C] | 0.713 |
| ACCGGAUGUGCCUUCCGGUCUGAUGAGUCCGUGAGUACGAAACAG [U12C G36U] | 0.498 |
| ACCGGAUGUGCCUUCCGGUCUGAUGAGUCCGUGAGGACAAAACAG [U12C G39A] | 0.403 |
| ACCGGAUGUGCCUUCCGGUCUGAUGAGUCCGUGAGGACCAAACAG [U12C G39C] | 0.327 |
| ACCGGAUGUGCCUUCCGGUCUGAUGAGUCCGUGAGGACUAAACAG [U12C G39U] | 0.317 |

| Variant | self-cleavage |
| --- | --- |
| ACCGGAUGUGCCUUCCGGUCUGAUGAGUCCGUGAGGACGAAACAA [U12C G45A] | 0.777 |
| ACCGGAUGUGCCUUCCGGUCUGAUGAGUCCGUGAGGACGAAACAC [U12C G45C] | 0.73 |
| ACCGGAUGUGCCUUCCGGUCUGAUGAGUCCGUGAGGACGAAACAU [U12C G45U] | 0.564 |
| ACCGGAUGUGCCAUCCGGUCUGAUGAGUCCGUGAGGACGAAACAG [U12C U13A] | 1.36 |
| ACCGGAUGUGCCCUCCGGUCUGAUGAGUCCGUGAGGACGAAACAG [U12C U13C] | 1.13 |
| ACCGGAUGUGCCGUCCGGUCUGAUGAGUCCGUGAGGACGAAACAG [U12C U13G] | 0.964 |
| ACCGGAUGUGCCUACCGGUCUGAUGAGUCCGUGAGGACGAAACAG [U12C U14A] | 0.832 |
| ACCGGAUGUGCCUCCCGGUCUGAUGAGUCCGUGAGGACGAAACAG [U12C U14C] | 0.83 |
| ACCGGAUGUGCCUGCCGGUCUGAUGAGUCCGUGAGGACGAAACAG [U12C U14G] | 0.902 |
| ACCGGAUGUGCCUUCCGGACUGAUGAGUCCGUGAGGACGAAACAG [U12C U19A] | 0.388 |
| ACCGGAUGUGCCUUCCGGCCUGAUGAGUCCGUGAGGACGAAACAG [U12C U19C] | 0.577 |
| ACCGGAUGUGCCUUCCGGGCUGAUGAGUCCGUGAGGACGAAACAG [U12C U19G] | 0.371 |
| ACCGGAUGUGCCUUCCGGUCAGAUGAGUCCGUGAGGACGAAACAG [U12C U21A] | 0.471 |
| ACCGGAUGUGCCUUCCGGUCCGAUGAGUCCGUGAGGACGAAACAG [U12C U21C] | 0.792 |
| ACCGGAUGUGCCUUCCGGUCGGAUGAGUCCGUGAGGACGAAACAG [U12C U21G] | 0.609 |
| ACCGGAUGUGCCUUCCGGUCUGAAGAGUCCGUGAGGACGAAACAG [U12C U24A] | 1.04 |
| ACCGGAUGUGCCUUCCGGUCUGACGAGUCCGUGAGGACGAAACAG [U12C U24C] | 1.01 |
| ACCGGAUGUGCCUUCCGGUCUGAGGAGUCCGUGAGGACGAAACAG [U12C U24G] | 1.13 |
| ACCGGAUGUGCCUUCCGGUCUGAUGAGACCGUGAGGACGAAACAG [U12C U28A] | 0.487 |
